{"source": "paper PMC7618375", "about": "(2024)", "binders": {"B1": {"name": "MPP8 chromodomain (CD, residues 55-116) (domain or fragment)", "chain": "GEDVFEVEKILDMKTEGGKVLYKVRWKGYTSDDDTWEPEIHLEDCKEVLLEFRKKIAENKAK"}}, "biological_target": "SETDB1 peptide trimethylated at K1178 (human (by the printed UniProt entry), UniProt Q15047, trimethyl-lysine at 1178)", "assay": "ITC", "data": [{"binder": "B1", "values": [{"measurement": "Kd", "result": "> 80", "unit": "µM"}]}]}
